Results as given in the supplement of paper PMC10567573.
± gives the standard deviation.

Experiment: protein stability index of a GFP-peptide fusion (GPS, HEK-293T) (PSI 1-6); higher = more stable
Details: c terminus: a fixed tail appended
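Note: 24-mer peptide tiles fused after GFP, lentivirally expressed, FACS-sorted into six equal bins by GFP/DsRed ratio, decoded by Illumina sequencing, PSI is the read-weighted mean bin number.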

| Sequence | protein stability index (treatment: DMSO) | protein stability index (treatment: MLN4924 1 uM, 8 h) |
| --- | --- | --- |
| GNEEEESKIFTTLDPASLAWLTEE [DDIT3] | 5.06 ± 0.2 | 5.09 ± 0.14 |
| SERPLDFLDLERPPTTPQNEEIRA [MFF] | 5.29 ± 0.39 | 5.55 ± 0.15 |
| LLGPATGCLLDDGLEGLFEDIDTS [SERTAD1] | 4.27 ± 0.097 | 4.32 ± 0.37 |
| AQRHRELYLRVELSDVQNPAISIT [HACD3] | 2.16 ± 0.34 | 2.18 ± 0.15 |
| YGSIHGPTDYQVNIQIIEYEKKQT [BTBD1] | 2.96 ± 0.48 | 3.28 ± 0.33 |
| ASLLQPVTPLGTSRWRKISAALPY [NCF4] | 2.46 ± 0.4 | 2.61 ± 0.3 |
| GSGAASSSGEDKENDGFVFKMPWK [CDC25B] | 4.025 ± 0.022 | 4.37 ± 0.34 |
| EDGSVELESQVQKDGVADSTVISS [C18orf25] | 5.5 ± 0.2 | 5.42 ± 0.28 |
| RVLNSAKEKSSTVPIPTVNQYLYF [SOAT1] | 2.29 ± 0.14 | 2.47 ± 0.16 |
| ISQQDPESDSQGQGNGLFYSSGPQ [ZC2HC1C] | 4.83 ± 0.48 | 5.08 ± 0.19 |
| RNVLELNDVRQSANYTCVAMSTLG [PTPRD] | 2.85 ± 0.28 | 2.74 ± 0.17 |
| KILEVVGRYSVHNAGISFSVKKQG [MLH1] | 2.19 ± 0.93 | 1.91 ± 0.51 |
| DHQTLLSAAHEVELQRQKEAEKLE [NOP53] | 5.46 ± 0.15 | 5.42 ± 0.38 |
| LIFHRHPVAQSTDAIRGKVGYTRG [SPSB1] | 2.33 ± 0.23 | 2.41 ± 0.21 |
| YDTFHTVADMMYFCQMLAVVETIN [HACD3] | 3.08 ± 0.35 | 3.17 ± 0.64 |
| VWVTHEEMETLETSTKTDSEEGSW [PPFIA4] | 4.19 ± 0.29 | 4.68 ± 0.22 |
| MDTAMEVVKFVNFLLVNGFQTAID [TRAF3IP2] | 2.73 ± 1.1 | 2.79 ± 0.086 |
| KESSPSGSKSQRYSGAYGASVSDE [CHCHD3] | 5.31 ± 0.5 | 4.99 ± 0.12 |
| GFTSYLGFGDEDTGLELIAEESNP [MIA2] | 4.61 ± 0.22 |  |
| KESRAQTLQNGRRHIHHLGNQLQL [BRF1] | 3.55 ± 0.15 | 3.63 ± 0.31 |
| IGHFNTASGVGFILGPVVGGYLTE [MFSD9] | 2.38 ± 0.53 | 2.31 ± 0.39 |
| VLCGVVMDRSLVQDAPLSDCTETI [ADD1] | 3.11 ± 0.27 | 2.99 ± 0.41 |
| FLYSHGVPRTLSPHQYHSVHGVGM [TBX5] | 2.31 ± 0.38 | 2 ± 0.24 |

| Sequence | protein stability index (treatment: DMSO) | protein stability index (treatment: MLN4924 1 uM, 8 h) |
| --- | --- | --- |
| LSPDIMKDAYVQKLVKVCNGHDCW [TENT5D] | 2.41 ± 0.72 | 2.35 ± 0.17 |
| AGADLPPPKIRLKPHRLGDSEHEP [PWWP2B] | 4.83 ± 0.23 | 4.91 ± 0.28 |
| KHSTIFDVGENLTVPDEFTVEERQ [SLC25A25] | 5.07 ± 0.22 | 4.98 ± 0.22 |
| LNCPFCGARLGGFNFVSTPKCSCG [RNF180] | 2.25 ± 0.51 | 3.28 ± 0.38 |
| LRLENNHCHIEESEHVLKKAHKYS [VPS39] | 2.87 ± 0.37 | 3.31 ± 0.45 |
| RTDEELQPPTTTVARSGTPAVENK [PLK2] | 5.42 ± 0.6 | 5.45 ± 0.27 |
| DEMYEVRIAAVEALCMLAQSSPSF [INTS4] | 2.69 ± 0.81 | 2.31 ± 0.11 |
| PQDGSYPRQADHDDHECCERVVIN [KCNA1] | 5.22 ± 0.41 | 5.18 ± 0.34 |
| EEQALTKAAEGGLSSPEFSELCIW [FAM98B] | 3.72 ± 0.052 | 3.65 ± 0.11 |
| EPGRLYLDLILAILALELICSLIC [TMEM192] | 2.35 ± 0.49 | 2.21 ± 0.34 |
| NFEEMRALLDSLPPPVESELALFQ [KLHL14] | 3.46 ± 0.45 | 3.91 ± 0.28 |
| QEGSSGMELSWGQSPGQPVQGGSE [TEX19] | 5.28 ± 0.26 | 5.29 ± 0.51 |
| ATYISEVHEHDGHLYLGSFRSPFL [APMAP] | 2.37 ± 0.4 | 1.97 ± 0.14 |
| ILENTSKVPAPKDVLAHQVPNAKK [NOP53] | 4.23 ± 0.27 | 4.43 ± 0.16 |
| AVTKDFKLTDKHETVVSYLPLSHI [ACSBG2] | 2.98 ± 0.075 | 3.08 ± 0.64 |
| TGIVNHTHSRMGSIMSTGIVQGSS [CARM1] | 3.12 ± 0.2 | 3.5 ± 0.63 |
| IINTKKLSARDHQKLEREARICRL [CAMK2A] | 3.19 ± 0.23 | 3.27 ± 0.25 |
| QRSPLGGDVLHAHLDIWKSAAWMK [SPDEF] | 2.61 ± 0.37 | 2.58 ± 0.45 |
| CQNKCRIALVENIPEGLNYSENAP [PLD5] | 3.03 ± 0.45 | 3.23 ± 0.64 |
| KEKCVSLPDCCHGSELRDFPGRPM [DLC1] | 3.82 ± 0.33 | 3.76 ± 0.4 |
| ILINNGSRIKGWWVFHHYVSTFLS [TMEM120A] | 2.17 ± 0.64 | 2.38 ± 0.42 |
| LEPPEEEIIEGNTKSHIMLVQRQM [NECAB1] | 4.64 ± 0.16 | 4.8 ± 0.24 |
